Sequences and labels used below:
B7: recombinant human PCPE-2 (procollagen C-proteinase enhancer 2) fused to a 6 Histidine-tag at the N-terminus (other)
chain: HHHHHHQSPERPVFTCGGILTGESGFIGSEGFPGVYPPNSKCTWKITVPEGKVVVLNFRFIDLESDNLCRYDFVDVYNGHANGQRIGRFCGTFRPGALVSSGNKMMVQMISDANTAGNGFMAMFSAAEPNERGDQYCGGLLDRPSGSFKTPNWPDRDYPAGVTCVWHIVAPKNQLIELKFEKFDVERDNYCRYDYVAVFNGGEVNDARRIGKYCGDSPPAPIVSERNELLIQFLSDLSLTADGFIGHYIFRPKKLPTTTEQPVTTTFPVTTGLKPTVALCQQKCRRTGTLEGNYCSSDFVLAGTVITTITRDGSLHATVSIINIYKEGNLAIQQAGKNMSARLTVVCKQCPLLRRGLNYIIMGQVGEDGRGKIMPNSFIMMFKTKNQKLLDALKNKQC
notes: Produced in HEK 293-T cells from pHLsec; Used as analyte and as immobilized ligand in SPR and in the activity assays; also called full-length PCPE-2

In assay [1] the target is B7. The assay can be described thus: SPR, analyte over immobilized PCPE-2 (646 RU).
Assay [2] deals with T1, human BMP-1 (bone morphogenetic protein-1) fused to a C-terminal Flag tag (human, UniProt P13497-2 121-730, limits assumed).
T1 construct: Produced in HEK 293-EBNA cells; also called full-length BMP-1; not shown: C-terminal Flag tag
T1 sequence (looked up): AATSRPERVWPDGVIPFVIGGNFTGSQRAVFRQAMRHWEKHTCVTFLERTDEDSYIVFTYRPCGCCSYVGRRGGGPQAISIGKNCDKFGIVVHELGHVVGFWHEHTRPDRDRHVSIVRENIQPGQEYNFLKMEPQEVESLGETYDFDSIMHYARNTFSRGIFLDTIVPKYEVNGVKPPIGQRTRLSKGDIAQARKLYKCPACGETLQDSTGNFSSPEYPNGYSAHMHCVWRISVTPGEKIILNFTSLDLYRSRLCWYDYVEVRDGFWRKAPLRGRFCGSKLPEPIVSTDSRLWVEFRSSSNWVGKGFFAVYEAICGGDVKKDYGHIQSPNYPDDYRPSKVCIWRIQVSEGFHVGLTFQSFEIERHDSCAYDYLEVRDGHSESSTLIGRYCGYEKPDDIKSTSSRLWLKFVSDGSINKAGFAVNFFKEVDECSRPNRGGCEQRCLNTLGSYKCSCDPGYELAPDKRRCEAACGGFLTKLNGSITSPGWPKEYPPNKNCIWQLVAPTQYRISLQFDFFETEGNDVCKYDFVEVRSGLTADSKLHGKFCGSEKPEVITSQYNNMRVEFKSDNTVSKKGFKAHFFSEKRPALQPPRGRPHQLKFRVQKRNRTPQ
The assay can be described thus: SPR, analyte over immobilized BMP-1 (974 RU). In general terms: Surface plasmon resonance follows binding to a sensor surface in real time, without labels.

The target of assay [3] is T2, mini-procollagen III (fused to a N-terminal c-myc tag) (UniProt P02461 1098-1466).
T2 construct: also called Mini-III; not shown: N-terminal c-myc tag
The assay can be described thus: SPR, analyte over immobilized mini-procollagen III (435 RU).

Assay [4] concerns the target T1, human BMP-1 (bone morphogenetic …). Kind of assay: SPR over immobilized BMP-1.
The target in assay [5] is T2, mini-procollagen III (fused to a …). Kind of assay: SPR, CUB1CUB2* 0.78-50 nM over immobilized mini-procollagen III (435 RU).
Assay [6] deals with T1, human BMP-1 (bone morphogenetic …). The assay can be described thus: SPR, C1-C2* 1.56-100 nM over immobilized BMP-1 (974 RU), steady-state fit.
For assay [7] the target is unchanged. The assay can be described thus: SPR (Figure 65).
Assay [8] deals with T2, mini-procollagen III (fused to a …). The assay can be described thus: SPR, analyte over immobilized mini-procollagen III (437 RU).
Assay [9] concerns the target B7. Kind of assay: SPR, PCPE-2 over immobilized C-propeptide III (351 RU).
In assay [10] the target is CPIII-Long (model substrate derived from procollagen III). The assay can be described thus: cell-based or functional assay.
The target in assay [11] is T1, human BMP-1 (bone morphogenetic …). The assay can be described thus: SPR, PCPE-2 1.56-100 nM over immobilized BMP-1 (974 RU), steady-state fit.
Assay [12] shares this target. The assay can be described thus: inhibition of BMP-1 (7 nM) cleavage of the fluorogenic peptide Mca-YVADAPK(Dnp)-OH, Morrison equation (apparent Ki).

The Kd is the free concentration of one partner at which half of the binding sites on the other are occupied at equilibrium, for simple one-to-one binding.

B1: catalytic domain of BMP-1 (enzyme, UniProt P13497 121-320, looked up)
chain: AATSRPERVWPDGVIPFVIGGNFTGSQRAVFRQAMRHWEKHTCVTFLERTDEDSYIVFTYRPCGCCSYVGRRGGGPQAISIGKNCDKFGIVVHELGHVVGFWHEHTRPDRDRHVSIVRENIQPGQEYNFLKMEPQEVESLGETYDFDSIMHYARNTFSRGIFLDTIVPKYEVNGVKPPIGQRTRLSKGDIAQARKLYKCP
notes: domain: catalytic domain; also called BMP-1cat
Turning to B1, the binding result in assay [1] is reported as “no binding (tested: 50 nM)”.

B2: NTR domain of PCPE-2 (other, human, UniProt Q9UKZ9 297-415, looked up)
chain: CQQKCRRTGTLEGNYCSSDFVLAGTVITTITRDGSLHATVSIINIYKEGNLAIQQAGKNMSARLTVVCKQCPLLRRGLNYIIMGQVGEDGRGKIMPNSFIMMFKTKNQKLLDALKNKQC
notes: domain: NTR
B2: the binding result in assay [2] was “no binding (tested: 50 nM)”; in assay [3], “no binding (tested: 200 nM)”.

B3: C2NTR (CUB2 and NTR domains of PCPE-2) (other)
chain: ETGHHHHHHCGGLLDRPSGSFKTPNWPDRDYPAGVTCVWHIVAPKNQLIELKFEKFDVERDNYCRYDYVAVFNGGEVNDARRIGKYCGDSPPAPIVSERNELLIQFLSDLSLTADGFIGHYIFRPKKLPTTTEQPVTTTFPVTTGLKPTVALCQQKCRRTGTLEGNYCSSDFVLAGTVITTITRDGSLHATVSIINIYKEGNLAIQQAGKNMSARLTVVCKQCPLLRRGLNYIIMGQVGEDGRGKIMPNSFIMMFKTKNQKLLDALKNKQC
notes: also called CUB2NTR
With B3, in assay [4], the binding result is given as “binds”.

B4: CUB1CUB2* domains of PCPE-2 (other)
chain: GPASQSPERPVFTCGGILTGESGFIGSEGFPGVYPPNSKCTWKITVPEGKVVVLNFRFIDLESDNLCRYDFVDVYNGHANGQRIGRFCGTFRPGALVSSGNKMMVQMISDANTAGNGFMAMFSAAEPNERGDQYCGGLLDRPSGSFKTPNWPDRDYPAGVTCVWHIVAPKNQLIELKFEKFDVERDNYCRYDYVAVFNGGEVNDARRIGKYCGDSPPAPIVSERNELLIQFLSDLSLTADGFIGHYIFRPKLEVLFQ
notes: Two O-glycosylated forms are seen on the gel; also called C1-C2*; the CUB domains of PCPE-2
As for B4, the Kd is approximately 30 nM in assay [5] and 28 nM in assay [6].

B5: C1(R44A,F78A,R79D)-C2(L101A) (other)
chain: GPASQSPERPVFTCGGILTGESGFIGSEGFPGVYPPNSKCTWKITVPEGKVVVLNFAFIDLESDNLCRYDFVDVYNGHANGQRIGRFCGTADPGALVSSGNKMMVQMISDANTAGNGFMAMFSAAEPNERGDQYCGGLLDRPSGSFKTPNWPDRDYPAGVTCVWHIVAPKNQLIELKFEKFDVERDNYCRYDYVAVFNGGEVNDARRIGKYCGDSPPAPIVSERNELLIQFLSDASLTADGFIGHYIFRPKKLEHHHHHH
notes: also called C1-C2 with the combination of the 4 mutations
Regarding B5, the binding result was “binds” in assay [7] and “no binding (tested: 50 nM)” in assay [8].

B6: C-propeptide III (C-propeptide of procollagen III) (other, UniProt P02461 1222-1466, looked up)
chain: DEPMDFKINTDEIMTSLKSVNGQIESLISPDGSRKNPARNCRDLKFCHPELKSGEYWVDPNQGCKLDAIKVFCNMETGETCISANPLNVPRKHWWTDSSAEKKHVWFGESMDGGFQFSYGNPELPEDVLDVHLAFLRLLSSRASQNITYHCKNSIAYMDQASGNVKKALKLMGSNEGEFKAEGNSKFTYTVLEDGCTKHTGEWSKTVFEYRTRKAVRLPIVDIAPYDIGGPDQEFGVDVGPVCFL
notes: domain: C-propeptide; Described as an uncleavable substrate mimic; Immobilized in SPR (351 RU); also called C-propeptide of collagen III
As to B6, the Kd in [9] is 45 nM. Turning to B7, the “maximum enhancement factor of CPIII-Long processing by BMP-1 (ratios 0:1 to 6:1)” value in [10] was found to be 1.3 fold. For the same molecule, binding in assay [11] was characterised by a dissociation constant (Kd) of 8.4 nM. Further, the Ki in [12] stood at 2.8 nM.

For the origin of these results see patent publication EP4484444A1 (Centre National de la Recherche Scientifique, dated 2025).
